This experiment deals with Sumo-tagged Drosophila Spd-2 C-terminal half (Spd-2 697-1146) P817D, phosphorylated in vitro by human PLK1 (UniProt Q9VV79). The experiment is described as follows: SEC-MALS. As to conditions: 50 µM protein, phosphorylated in vitro with recombinant human PLK1 kinase; parent: est. 0.50; read off a plot.
Chain of UniProt Q9VV79 (Q9VV79 entry or part of it P817D | P817D): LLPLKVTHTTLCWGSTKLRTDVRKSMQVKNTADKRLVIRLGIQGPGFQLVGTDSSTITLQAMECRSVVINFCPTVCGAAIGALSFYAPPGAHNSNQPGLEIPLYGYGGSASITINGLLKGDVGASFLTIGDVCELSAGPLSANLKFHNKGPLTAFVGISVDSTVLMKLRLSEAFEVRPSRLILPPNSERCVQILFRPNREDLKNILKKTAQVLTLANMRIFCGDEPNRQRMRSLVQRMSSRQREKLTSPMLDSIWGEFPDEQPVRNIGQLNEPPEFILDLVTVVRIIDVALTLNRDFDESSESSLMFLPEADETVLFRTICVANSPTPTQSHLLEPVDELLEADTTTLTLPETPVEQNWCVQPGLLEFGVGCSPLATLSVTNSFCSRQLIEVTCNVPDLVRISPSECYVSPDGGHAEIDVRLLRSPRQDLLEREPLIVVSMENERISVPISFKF

For “Sumo-tagged Drosophila Spd-2 C-terminal half (Spd-2 697-1146), wild type, phosphorylated in vitro by human PLK1 (from UniProt Q9VV79) P817D”, the response turned out to be 0.14.

The record behind these values is paper PMC11922060.
